In patent US20150119340A1, “FUSION PEPTIDE AND USE THEREOF FOR CELL MEMBRANE PENETRATING” (Samsung Electronics Co., Ltd., priority 2013, published 2015):

System: MDA-MB-231 cells
Test: Anticancer effect: cell viability (proliferation assay kit)
Format: cell-based
Conditions: various concentrations, 72 hours after the conjugate treatment, FIG. 11
Protocol: MDA-MB-231 cells were incubated at the amount of about 5,000-8,000 cells/well in 96 well plate for 24 hours, and then, treated with each of the obtained conjugates MTS-BAA-p16M7 and Tat-p16M7 at various concentrations (refer to FIG. 11). 24 hours or 72 hours after, the viability of the cells was measured by reading the fluorescent intensity of viable cells using titer® proliferation assay kit (Promega) according to manufacturer's manual. The results were normalized based on the results from a control (non-treated) group, and plotted (the value of the control group: “1”). The experiment was conducted in triplicate, and the error was treated using a standard deviation.
The obtained results (results obtained at 72 hours after the conjugate treatment) are illustrated in FIG. 11.

B1: Tat-p16M7: Comparison conjugate of TAT peptide and p16M7 (SEQ ID NO: 20-SEQ ID NO: 16) (protein)
chain: RKKRRQRRRMEPAAGSSMEPSADKLATAAARGRVEEVRALLEAGADPNAPNSYGRRPIQVMMMGSARVAELLLKHGAEPNSADPATSTRPVHDAAREGFLDTLVVLHRAGARLDARDAWGRTPVDLAEELGHRDVARYLRAAAGGTRGSNHARIDAAEGPSDIPD
modifications: Synthetic (TAT peptide); Synthetic (p16 variant (p16M7))
inhibitory effect on cancer cell proliferation (relative viability): nearly no inhibitory effect on cancer cell proliferation
